According to patent US20240132577A1 (US Dept. of Health and Human Services, published 2024):
Where “and” joins values, the source holds several entries; their conditions need not be identical. Equal entries are not always repeated. Where two headings read alike, the source gives them in different places.

B1: Nb4 (VHH)
VHH: QVQLVESGGGLVQAGGSLRLSCVASGSGFEPNAMGWYRQAPGKQRELVAGITSGGNANYADSVKGRFTISRDNVKNTVYLQMNSLKPEDTAVYYCNAVGPRFNPRGSPTNYWGQGTQVTVSS
B2: msNb12-tri-IgG2a (Fc fusion)
chain: QVKLEESGGGSVQAGGSLRLICTAPGLTHNNCGLDWYRRAPGKEREFVSSISADGTTSYADSVKGRFTISKDKVEDTVYLQMNSLKPEDTAIYSCKTAFPYFGNSCVLDYWGQGTSVTVSSGGGGSGGGGSGGGGSQVKLEESGGGSVQAGGSLRLICTAPGLTHNNCGLDWYRRAPGKEREFVSSISADGTTSYADSVKGRFTISKDKVEDTVYLQMNSLKPEDTAIYSCKTAFPYFGNSCVLDYWGQGTSVTVSSGGGGSGGGGSGGGGSQVKLEESGGGSVQAGGSLRLICTAPGLTHNNCGLDWYRRAPGKEREFVSSISADGTTSYADSVKGRFTISKDKVEDTVYLQMNSLKPEDTAIYSCKTAFPYFGNSCVLDYWGQGTSVTVSSEPKIPQPQPKPQPQPQPQPKPQPKPEPECTCPKCPAPELLGGPSVFLFPPKPKDTLMISRTPEVTCVWDVSHEDPEVKFNWYVDGVEVHNAKTKPREEQYNSTYRWSVLTVLHQDWLNGKEYKCKVSNKALPAPIEKTISKAKGQPREPQVYTLPPSREEMTKNQVSLTCLVKGFYPSDIAVEWESNGQPENNYKTTPPVLDSDGSFFLYSKLTVDKSRWQQGNVFSCSVMHEALHNHYTQKSLSLSPGKHHHHHH
B3: Nb56-tri-IgG1 (Fc fusion)
chain: QVQLQESGGGLVQAGDSLRLSCVASERTFRRYGMGWFRQAPGKEREFVAAVDRSHTKTGYADFVKGRFTISTNYENMVYLQMNSLKPEDTAVYYCAAPSYEKGSDPTSWNTDRGYDYWGQGTQVTVSSGGGGSGGGGSGGGGSQVQLQESGGGLVQAGDSLRLSCVASERTFRRYGMGWFRQAPGKEREFVAAVDRSHTKTGYADFVKGRFTISTNYENMVYLQMNSLKPEDTAVYYCAAPSYEKGSDPTSWNTDRGYDYWGQGTQVTVSSGGGGSGGGGSGGGGSQVQLQESGGGLVQAGDSLRLSCVASERTFRRYGMGWFRQAPGKEREFVAAVDRSHTKTGYADFVKGRFTISTNYENMVYLQMNSLKPEDTAVYYCAAPSYEKGSDPTSWNTDRGYDYWGQGTQVTVSSDKTHTCPPCPAPELLGGPSVFLFPPKPKDTLMISRTPEVTCVWDVSHEDPEVKFNWYVDGVEVHNAKTKPREEQYNSTYRWSVLTVLHQDWLNGKEYKCKVSNKALPAPIEKTISKAKGQPREPQVYTLPPSREEMTKNQVSLTCLVKGFYPSDIAVEWESNGQPENNYKTTPPVLDSDGSFFLYSKLTVDKSRWQQGNVFSCSVMHEALHNHYTQKSLSLSPGKHHHHHH
B4: Nb21 (VHH)
VHH: QVQLVESGGGLVQAGGSLRLSCAVSGLGAHRVGWFRRAPGKEREFVAAIGANGGNTNYLDSVKGRFTISRDNAKNTIYLQMNSLKPQDTAVYYCAARDIETAEYTYWGQGTQVTVSS

Key:
Experiment in all cases: cell-based or functional assay
[1] = target: SARS-CoV-2 S protein (C-terminally truncated, on pseudotyped virus) (SARS-CoV-2 (Wuhan-Hu-1), UniProt P0DTC2 14-1254)
[2] = target: SARS-CoV-2 S protein E484K (on pseudotyped virus) (SARS-CoV-2, UniProt P0DTC2 14-1254)
[3] = target: T1, SARS-CoV-2 S protein (C-terminally truncated, on pseudotyped virus) (SARS-CoV-2 (Wuhan-Hu-1), UniProt P0DTC2 14-1254); remark: listed apart in the source
[4] = target: SARS-CoV-2 S protein R683G (on pseudotyped virus) (SARS-CoV-2, UniProt P0DTC2 14-1254)
[5] = target: SARS-CoV-2 S protein N501Y (on pseudotyped virus) (SARS-CoV-2, UniProt P0DTC2 14-1254)
[6] = target: SARS-CoV-2 S protein K417N (on pseudotyped virus) (SARS-CoV-2, UniProt P0DTC2 14-1254)
[7] = target: SARS-CoV-2 S protein K417N + E484K + N501Y (on pseudotyped virus) (SARS-CoV-2, UniProt P0DTC2 14-1254)
[8] = target: T1, SARS-CoV-2 S protein (C-terminally …); remark: listed apart in the source

| Binder | IC50 (pseudovirus neutralization) [1] | IC90 (pseudovirus neutralization) [1] | IC50 (variant pseudovirus neutralization) [2] [nM] | IC50 (variant pseudovirus neutralization) [3] [nM] | IC50 (variant pseudovirus neutralization) [4] [nM] | IC50 (variant pseudovirus neutralization) [5] [nM] | IC50 (variant pseudovirus neutralization) [6] [nM] | IC50 (variant pseudovirus neutralization) [7] [nM] | IC50 (pseudovirus neutralization) [8] | IC90 (pseudovirus neutralization) [8] |
| --- | --- | --- | --- | --- | --- | --- | --- | --- | --- | --- |
| B1 | 41 nM and 554 ng/ml | 4490 ng/ml and 332 nM | – | – | – | – | – | – | – | – |
| B2 | – | – | 0.149 | 0.091 | 0.178 | 0.082 | 0.068 | 0.09 | 4.71 ng/ml and 64.8 nM | 74 ng/ml and 1.02 µM |
| B3 | – | – | 0.037 | 0.043 | 0.008 | 0.028 | 0.021 | 0.014 | 3.91 ng/ml and 54.5 nM | 18.6 ng/ml and 260 nM |
| B4 | 1900 ng/ml and 141 nM | 3230 ng/ml and 239 nM | – | – | – | – | – | – | – | – |
